Data: US7812117B2, “Vasostatin as marrow protectant” (The United States of America as represented by the …, priority 1998, dated 2010)
Like-named read-outs stand apart in the source and are kept apart here.

Tests used:
[1] = system: peripheral blood white cells
Experimental: Mice (C57BL/B6, females, 7.5 weeks old) were treated for 1 week with daily inoculations of vaso (300 μg/mouse) or buffer alone. On day 8, the mice received cytoxan (1 or 2 mg/mouse) and continued daily inoculation with buffer or vaso. Peripheral blood white cell counts were measured on day 5 after administration of cytoxan.
(§1) C57BL6J mice (7 weeks of age) were first treated for 7 days daily with either buffer (100 μl s.c.) or vaso (300 μg/mouse in 100 μl of buffer s.c.). On day 8, groups of mice (n=6) pretreated with either buffer or vaso were injected with cyclophosphamide (1.0 or 2.0 mg/mouse) and continued on daily inoculations of buffer (100 μl s.c.) or vaso (300 μg/mouse in 100 μl of buffer s.c.). Additional control mice were treated with only buffer or vaso for 5 additional days. On days 3 and 5 after cyclophosphamide injection, ½ of the mice were killed for evaluation of the bone marrow and peripheral blood.

[2] = system: athymic BALB/c nu/nu mice
Experimental: (§2) Groups of 6-8 athymic BALB/c nu/nu mice, 6 weeks of age, were first irradiated with 400 rad, and 24 hr later were inoculated s.c. with 8×10^6 Burkitt lymphoma cells (CA46 cell line). Beginning 24 hr after cell inoculation, one group (n=6) of mice received daily s.c. inoculations of buffer alone (100 μl); a second group (n=6) received daily s.c. inoculations of a fusion protein of maltose binding protein and vasostatin, MBP-vaso, alone (200 μg in 100 μl of buffer); a third group (n=8) received daily s.c. inoculations of buffer alone (100 μl) plus cyclophosphamide once on day 9 post cell inoculation (2.6 mg i.p. in 100 μl of buffer); a fourth group (n=8) received daily s.c. inoculations of vaso (200 μg in 100 μl of buffer) plus cyclophosphamide once on day 9 post cell inoculation (2.6 mg i.p. in 100 μl of buffer); a fifth group received daily s.c. inoculations of buffer alone (100 μl) plus daily i.p. inoculations of cyclophosphamide (260 μg/mouse in 100 μl of buffer); and a sixth group received daily s.c. inoculations of vaso (200 μg/mouse in 100 μl of buffer) plus daily i.p. inoculations of cyclophosphamide (260 μg/mouse in 100 μl of buffer).

[3] = system: femoral marrow hematopoietic cells
Experimental: as §2

[4] = system: peripheral blood white cells; remark: listed apart in the source
Experimental: Groups of C57BL/6 mice (8 weeks of age) were treated as described in FIG. 14. FIG. 4A is a bar graph of the bone marrow cell count from mice treated for 16 days with either buffer alone (PBS, 100 μl/mouse/day s.c), Vaso (300 μg/mouse/day s.c) alone, Cytoxan (500 μg/mouse/day i.p.) alone, or vaso (300 μg/mouse/day s.c) plus Cytoxan (500 μg/mouse/day i.p.). Bone marrow was harvested on days 9 and 17 and the number of nucleated cells were counted. FIG. 4B is a bar graph of the bone marrow cell count from mice treated with for 11 days with either buffer alone (PBS, 100 μl/mouse/day s.c), Vaso (300 μg/mouse/day s.c) alone, Cytoxan (250 μg/mouse/day i.p.)×11 days plus Cytoxan 2 mg/mouse i.p. on day 11, or Cytoxan (250 μg/mouse/day i.p.)×11 days plus Cytoxan 2 mg/mouse i.p. on day 11 plus Vaso (300 μg/mouse/day s.c, days 1-16). Bone marrow cell counts were obtained on day 17. FIG. 4C is a bar graph of peripheral blood white cells counts (WBC) on day 17 from mice from the same treatment groups described in B.
FIG. 14 is a schematic diagram of different treatment groups used in the studies described herein. • Group 1: Buffer alone (100 μl/mouse/day s.c)×16 days • Group 2: Vaso alone (300 μg/mouse/day s.c)×16 days • Group 3: Cyclophosphamide (500 μg/mouse/day i.p.)×16 days Group 4: Cyclophosphamide (500 μg/mouse/day i.p.)×16 days plus vaso (300 μg/mouse/day s.c)×16 days Group 5: Cyclophosphamide (250 μg/mouse/day i.p.)×11 days plus Cyclophosphamide 2 mg/mouse i.p. on day 11 Group 6: Cyclophosphamide (250 μg/mouse/day i.p.)×11 days plus Cyclophosphamide 2 mg/mouse i.p. on day 11 plus vaso (300 μg/mouse/day s.c) days 1-16.
In addition, rather than treating the mice with vaso prior to toxin exposure as described above, mice were simultaneously inoculated with cyclophosphamide and vaso. Thus, groups of mice (n=6) received either buffer alone (100 μl s.c) daily for 16 days, vaso (300 μg/mouse s.c) alone daily for 16 days, cyclophosphamide (500 μg/mouse i.p.) either alone or together with vaso (300 μg/mouse s.c) for 16 days. Other groups of mice (n=6) were inoculated daily for 11 days with cyclophosphamide (250 μg/mouse i.p.) either alone or together with vaso (300 μg/mouse s.c).

bone marrow cells = system: bone marrow cells
Experimental: FIG. 2 is set of bar graphs showing of the effects of vaso on cytoxan-induced bone marrow toxicity evaluated by bone marrow cell counting. Bone marrow cells obtained from the femurs of mice treated with cytoxan alone or with vaso were counted. FIG. 2A is a bar graph of bone marrow cell counts 5 days after the injection of cytoxan (1 or 2 mg/mouse) alone or with vaso (300 μg/mouse/day). FIG. 2B is a bar graph of the bone marrow cell counts on days 3 and 5 after treatment with cytoxan (2 mg/mouse) alone or with vaso ([…]).
as §1

[5] = system: Burkitt lymphoma cells (CA46 cell line); assay: Burkitt lymphoma CA46 tumor growth in athymic mice treated with vaso and/or cyclophosphamide; type: in vivo, human; conditions: vaso 200 μg/day s.c., cyclophosphamide 260 μg/mouse/day i.p. for 26 days; for average tumor size: buffer control 5.85; for average tumor weight: buffer control 6.75
Experimental: as §2

[6] = same dose and regimen of cyclophosphamide plus vaso

Molecule: O=P1(N(CCCl)CCCl)NCCCO1 (centres unmarked) [cyclophosphamide, reference compound]
- peripheral blood white cell counts on day 5 after cyclophosphamide ([1]; cyclophosphamide 2.0 or 1.0 mg/mouse alone, vs buffer or vaso alone controls): significantly reduced
- mice alive on day 28 ([2]; cyclophosphamide 260 μg/mouse i.p. daily for 26 days, alone): 8/8
- mice alive on day 26 ([2]; cyclophosphamide 2.6 mg i.p. once on day 9 alone (daily buffer s.c.), 400 rad, CA46-inoculated, n=8): 0/8
- mice dead on day 13 ([2]; cyclophosphamide 2.6 mg i.p. once on day 9 alone, n=8): 7 out of 8
- histological appearance of femoral marrow ([3]; cyclophosphamide only (260 μg/day, 26 days)): hypocellular and virtually depleted of hematopoietic cells
- peripheral white blood cell counts on day 17 ([4]; cyclophosphamide 250 μg/mouse daily for 11 days then 2 mg/mouse on day 12, alone, vs untreated controls): reduction in white blood cell counts
- average percent neutrophils on day 17 ([4]; cyclophosphamide 250 μg/mouse daily for 11 days then 2 mg/mouse on day 12, alone, controls 10-17%): 13.4%
- average percent lymphocytes on day 17 ([4]; cyclophosphamide 250 μg/mouse daily for 11 days then 2 mg/mouse on day 12, alone, controls 72-83%): 62%
- bone marrow cellularity 5 days after cyclophosphamide (bone marrow cells; cyclophosphamide 2 mg/mouse alone, vs control untreated mice): clear reduction in cellularity
- marrow cell counts 5 days after cyclophosphamide (bone marrow cells; cyclophosphamide 1.0 or 2.0 mg/mouse, alone): reduced significantly marrow cell counts
- average tumor size [5]: 4.98 cm^2
- average tumor weight [5]: 4.69 g

B1: vaso: N-terminal domain of calreticulin (amino acids 1-180, SEQ ID NO:3); given as fusion protein with maltose binding protein, MBP-vaso (protein)
chain: EPAVYFKEQFLDGDGWTSRWIESKHKSDFGKFVLSSGKFYGDEEKDKGLQTSQDARFYALSASFEPFSNKGQTLVVQFTVKHEQNIDCGGGYVKLFPNSLDQTDMHGDSEYNIMFGPDICGPGTKKVHVIFNYKGKNVLINKDIRCKDDEFTHLYTLIVRPDNTYEVKIDNSQVESGSLE
modifications: Vasostatin
- reduction in peripheral blood white cell counts caused by cyclophosphamide, day 5 ([1]; cyclophosphamide 2.0 or 1.0 mg/mouse with vaso 300 μg/mouse/day): alleviated
- mice alive on day 28 ([2]; cyclophosphamide 260 μg/mouse i.p. daily in conjunction with vasostatin 200 μg/mouse s.c. daily): 8/8
- gross and microscopic examination of liver, spleen, kidneys, heart, lung, lymph nodes and bone marrow ([2]; surviving mice, high dose cyclophosphamide plus vaso, day 26): No abnormalities were noted
- mice alive and well on day 26 ([2]; vaso 200 μg s.c. daily plus cyclophosphamide 2.6 mg i.p. once on day 9, n=8, p<0.0001 vs cyclophosphamide alone): 8/8
- mice alive and well on day 28 ([2]; vasostatin alone 200 μg s.c. daily): 6/6
- histological appearance of femoral marrow ([3]; cyclophosphamide 260 μg/day plus vasostatin 200 μg/day, 26 days): indistinguishable from a normal control marrow
- average percent lymphocytes on day 17 [4, 6]: 25%
- average percent neutrophils on day 17 [4, 6]: 63%
- white blood cells in the circulation on day 17 ([4]; vaso in conjunction with cyclophosphamide 250 μg/mouse daily for 11 days then 2 mg/mouse): significantly greater number of white blood cells
- bone marrow cellularity 5 days after cyclophosphamide (bone marrow cells; cyclophosphamide 2 mg/mouse in conjunction with vasostatin): indistinguishable from that of control mice
- nadir in bone marrow counts on day 3 after cyclophosphamide (bone marrow cells; cyclophosphamide 2 mg/mouse with vaso 300 μg/mouse/day): reduced the severity of this nadir
- bone marrow cell counts 5 days after cyclophosphamide (bone marrow cells; cyclophosphamide 1.0 or 2.0 mg/mouse together with vaso 300 μg/mouse/day s.c.): the reduction in bone marrow cell counts was minimal
- average tumor size [5]: 4.85 cm^2
- average tumor weight [5]: 3.79 g
